According to patent US20240270846A1 (published 2024):

Molecular target: T1, CD3 epsilon homodimer protein (UniProt P07766 23-126)
T1 construct: Immobilized on Sensor chip CM4 by amine coupling; construct not described; also called CD3 (CD3 epsilon)
Assay: SPR Biacore T200, CD3 epsilon homodimer on CM4 chip, antibody as analyte;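 note: Amine-coupled CD3 epsilon homodimer, run at 25 °C in HBS-EP+ buffer, ratio is bound amount of each single-residue H chain variant over that of the parent antibody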

T1 sequence (P07766 23-126): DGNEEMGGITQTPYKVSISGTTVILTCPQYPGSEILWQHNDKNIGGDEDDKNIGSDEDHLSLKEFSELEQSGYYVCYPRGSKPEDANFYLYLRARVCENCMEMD

Binder	ratio of amounts bound (Y/X vs CE115HA000)
CE115HA000 A56L one-arm antibody (antibody, human IgG1, kappa, L234A L235A, N297A, name in Kabat numbering, one-arm antibody (one Fab)) heavy: QVQLVESGGGVVQPGRSLRLSCAASGFTFSNAWMHWVRQAPGKGLEWVAQIKAKSNNYLTYYAESVKGRFTISRDDSKNSLYLQMNSLKTEDTAVYYCRYVHYGAYYGVDAWGQGTTVTVSSASTKGPSVFPLAPSSKSTSGGTAALGCLVKDYFPEPVTVSWNSGALTSGVHTFPAVLQSSGLYSLSSVVTVPSSSLGTQTYICNVNHKPSNTKVDKKVEPKSCDKTHTCPPCPAPEAAGGPSVFLFPPKPKDTLMISRTPEVTCVVVDVSHEDPEVKFNWYVDGVEVHNAKTKPREEQYASTYRVVSVLTVLHQDWLNGKEYKCKVSNKALPAPIEKTISKAKGQPREPQVYTLPPSRCELTKNQVSLSCAVKGFYPSDIAVEWESNGQPENNYKTTPPVLDSDGSFFLVSKLTVDKSRWQQGNVFSCSVMHEALHNHYTQKSLSLSPDYKDDDDK EPKSSDKTHTCPPCPAPELLGGPSVFLFPPKPKDTLMISRTPEVTCVVVDVSHEDPEVKFNWYVDGVEVHNAKTKPREEQYNSTYRVVSVLTVLHQDWLNGKEYKCKVSNKALPAPIEKTISKAKGQPREPQVCTLPPSRDELTKNQVSLWCLVKGFYPSDIAVEWESNGQPENNYKTTPPVLDSDGSFFLYSKLTVDKSRWQQGNVFSCSVMHEALHNRYTQKSLSLSP light: DIVMTQSPLSLPVTPGEPASISCRSSQSLVHSNRNTYLHWYQQKPGQAPRLLIYKVSNRFSGVPDRFSGSGSGTDFTLKISRVEAEDVGVYYCGQGTQVPYTFGQGTKLEIKRTVAAPSVFIFPPSDEQLKSGTASVVCLLNNFYPREAKVQWKVDNALQSGNSQESVTEQDSKDSTYSLSSTLTLSKADYEKHKVYACEVTHQGLSSPVTKSFNRGEC	0.8
CE115HA000 A56N one-arm antibody (antibody, human IgG1, kappa, L234A L235A, N297A, name in Kabat numbering, one-arm antibody (one Fab)) heavy: QVQLVESGGGVVQPGRSLRLSCAASGFTFSNAWMHWVRQAPGKGLEWVAQIKAKSNNYNTYYAESVKGRFTISRDDSKNSLYLQMNSLKTEDTAVYYCRYVHYGAYYGVDAWGQGTTVTVSSASTKGPSVFPLAPSSKSTSGGTAALGCLVKDYFPEPVTVSWNSGALTSGVHTFPAVLQSSGLYSLSSVVTVPSSSLGTQTYICNVNHKPSNTKVDKKVEPKSCDKTHTCPPCPAPEAAGGPSVFLFPPKPKDTLMISRTPEVTCVVVDVSHEDPEVKFNWYVDGVEVHNAKTKPREEQYASTYRVVSVLTVLHQDWLNGKEYKCKVSNKALPAPIEKTISKAKGQPREPQVYTLPPSRCELTKNQVSLSCAVKGFYPSDIAVEWESNGQPENNYKTTPPVLDSDGSFFLVSKLTVDKSRWQQGNVFSCSVMHEALHNHYTQKSLSLSPDYKDDDDK EPKSSDKTHTCPPCPAPELLGGPSVFLFPPKPKDTLMISRTPEVTCVVVDVSHEDPEVKFNWYVDGVEVHNAKTKPREEQYNSTYRVVSVLTVLHQDWLNGKEYKCKVSNKALPAPIEKTISKAKGQPREPQVCTLPPSRDELTKNQVSLWCLVKGFYPSDIAVEWESNGQPENNYKTTPPVLDSDGSFFLYSKLTVDKSRWQQGNVFSCSVMHEALHNRYTQKSLSLSP light: DIVMTQSPLSLPVTPGEPASISCRSSQSLVHSNRNTYLHWYQQKPGQAPRLLIYKVSNRFSGVPDRFSGSGSGTDFTLKISRVEAEDVGVYYCGQGTQVPYTFGQGTKLEIKRTVAAPSVFIFPPSDEQLKSGTASVVCLLNNFYPREAKVQWKVDNALQSGNSQESVTEQDSKDSTYSLSSTLTLSKADYEKHKVYACEVTHQGLSSPVTKSFNRGEC	0.87

More lines, now with the values ahead:

ratio of amounts bound (Y/X vs CE115HA000)	Binder
0.76	CE115HA000 A56Q one-arm antibody (antibody, human IgG1, kappa, L234A L235A, N297A, name in Kabat numbering, one-arm antibody (one Fab)) heavy: QVQLVESGGGVVQPGRSLRLSCAASGFTFSNAWMHWVRQAPGKGLEWVAQIKAKSNNYQTYYAESVKGRFTISRDDSKNSLYLQMNSLKTEDTAVYYCRYVHYGAYYGVDAWGQGTTVTVSSASTKGPSVFPLAPSSKSTSGGTAALGCLVKDYFPEPVTVSWNSGALTSGVHTFPAVLQSSGLYSLSSVVTVPSSSLGTQTYICNVNHKPSNTKVDKKVEPKSCDKTHTCPPCPAPEAAGGPSVFLFPPKPKDTLMISRTPEVTCVVVDVSHEDPEVKFNWYVDGVEVHNAKTKPREEQYASTYRVVSVLTVLHQDWLNGKEYKCKVSNKALPAPIEKTISKAKGQPREPQVYTLPPSRCELTKNQVSLSCAVKGFYPSDIAVEWESNGQPENNYKTTPPVLDSDGSFFLVSKLTVDKSRWQQGNVFSCSVMHEALHNHYTQKSLSLSPDYKDDDDK EPKSSDKTHTCPPCPAPELLGGPSVFLFPPKPKDTLMISRTPEVTCVVVDVSHEDPEVKFNWYVDGVEVHNAKTKPREEQYNSTYRVVSVLTVLHQDWLNGKEYKCKVSNKALPAPIEKTISKAKGQPREPQVCTLPPSRDELTKNQVSLWCLVKGFYPSDIAVEWESNGQPENNYKTTPPVLDSDGSFFLYSKLTVDKSRWQQGNVFSCSVMHEALHNRYTQKSLSLSP light: DIVMTQSPLSLPVTPGEPASISCRSSQSLVHSNRNTYLHWYQQKPGQAPRLLIYKVSNRFSGVPDRFSGSGSGTDFTLKISRVEAEDVGVYYCGQGTQVPYTFGQGTKLEIKRTVAAPSVFIFPPSDEQLKSGTASVVCLLNNFYPREAKVQWKVDNALQSGNSQESVTEQDSKDSTYSLSSTLTLSKADYEKHKVYACEVTHQGLSSPVTKSFNRGEC
0.66	CE115HA000 A56Y one-arm antibody (antibody, human IgG1, kappa, L234A L235A, N297A, name in Kabat numbering, one-arm antibody (one Fab)) heavy: QVQLVESGGGVVQPGRSLRLSCAASGFTFSNAWMHWVRQAPGKGLEWVAQIKAKSNNYYTYYAESVKGRFTISRDDSKNSLYLQMNSLKTEDTAVYYCRYVHYGAYYGVDAWGQGTTVTVSSASTKGPSVFPLAPSSKSTSGGTAALGCLVKDYFPEPVTVSWNSGALTSGVHTFPAVLQSSGLYSLSSVVTVPSSSLGTQTYICNVNHKPSNTKVDKKVEPKSCDKTHTCPPCPAPEAAGGPSVFLFPPKPKDTLMISRTPEVTCVVVDVSHEDPEVKFNWYVDGVEVHNAKTKPREEQYASTYRVVSVLTVLHQDWLNGKEYKCKVSNKALPAPIEKTISKAKGQPREPQVYTLPPSRCELTKNQVSLSCAVKGFYPSDIAVEWESNGQPENNYKTTPPVLDSDGSFFLVSKLTVDKSRWQQGNVFSCSVMHEALHNHYTQKSLSLSPDYKDDDDK EPKSSDKTHTCPPCPAPELLGGPSVFLFPPKPKDTLMISRTPEVTCVVVDVSHEDPEVKFNWYVDGVEVHNAKTKPREEQYNSTYRVVSVLTVLHQDWLNGKEYKCKVSNKALPAPIEKTISKAKGQPREPQVCTLPPSRDELTKNQVSLWCLVKGFYPSDIAVEWESNGQPENNYKTTPPVLDSDGSFFLYSKLTVDKSRWQQGNVFSCSVMHEALHNRYTQKSLSLSP light: DIVMTQSPLSLPVTPGEPASISCRSSQSLVHSNRNTYLHWYQQKPGQAPRLLIYKVSNRFSGVPDRFSGSGSGTDFTLKISRVEAEDVGVYYCGQGTQVPYTFGQGTKLEIKRTVAAPSVFIFPPSDEQLKSGTASVVCLLNNFYPREAKVQWKVDNALQSGNSQESVTEQDSKDSTYSLSSTLTLSKADYEKHKVYACEVTHQGLSSPVTKSFNRGEC
0.28	CE115HA000 A99D one-arm antibody (antibody, human IgG1, kappa, L234A L235A, N297A, name in Kabat numbering, one-arm antibody (one Fab)) heavy: QVQLVESGGGVVQPGRSLRLSCAASGFTFSNAWMHWVRQAPGKGLEWVAQIKAKSNNYATYYAESVKGRFTISRDDSKNSLYLQMNSLKTEDTAVYYCRYVHYGDYYGVDAWGQGTTVTVSSASTKGPSVFPLAPSSKSTSGGTAALGCLVKDYFPEPVTVSWNSGALTSGVHTFPAVLQSSGLYSLSSVVTVPSSSLGTQTYICNVNHKPSNTKVDKKVEPKSCDKTHTCPPCPAPEAAGGPSVFLFPPKPKDTLMISRTPEVTCVVVDVSHEDPEVKFNWYVDGVEVHNAKTKPREEQYASTYRVVSVLTVLHQDWLNGKEYKCKVSNKALPAPIEKTISKAKGQPREPQVYTLPPSRCELTKNQVSLSCAVKGFYPSDIAVEWESNGQPENNYKTTPPVLDSDGSFFLVSKLTVDKSRWQQGNVFSCSVMHEALHNHYTQKSLSLSPDYKDDDDK EPKSSDKTHTCPPCPAPELLGGPSVFLFPPKPKDTLMISRTPEVTCVVVDVSHEDPEVKFNWYVDGVEVHNAKTKPREEQYNSTYRVVSVLTVLHQDWLNGKEYKCKVSNKALPAPIEKTISKAKGQPREPQVCTLPPSRDELTKNQVSLWCLVKGFYPSDIAVEWESNGQPENNYKTTPPVLDSDGSFFLYSKLTVDKSRWQQGNVFSCSVMHEALHNRYTQKSLSLSP light: DIVMTQSPLSLPVTPGEPASISCRSSQSLVHSNRNTYLHWYQQKPGQAPRLLIYKVSNRFSGVPDRFSGSGSGTDFTLKISRVEAEDVGVYYCGQGTQVPYTFGQGTKLEIKRTVAAPSVFIFPPSDEQLKSGTASVVCLLNNFYPREAKVQWKVDNALQSGNSQESVTEQDSKDSTYSLSSTLTLSKADYEKHKVYACEVTHQGLSSPVTKSFNRGEC
1.43	CE115HA000 A99F one-arm antibody (antibody, human IgG1, kappa, L234A L235A, N297A, name in Kabat numbering, one-arm antibody (one Fab)) heavy: QVQLVESGGGVVQPGRSLRLSCAASGFTFSNAWMHWVRQAPGKGLEWVAQIKAKSNNYATYYAESVKGRFTISRDDSKNSLYLQMNSLKTEDTAVYYCRYVHYGFYYGVDAWGQGTTVTVSSASTKGPSVFPLAPSSKSTSGGTAALGCLVKDYFPEPVTVSWNSGALTSGVHTFPAVLQSSGLYSLSSVVTVPSSSLGTQTYICNVNHKPSNTKVDKKVEPKSCDKTHTCPPCPAPEAAGGPSVFLFPPKPKDTLMISRTPEVTCVVVDVSHEDPEVKFNWYVDGVEVHNAKTKPREEQYASTYRVVSVLTVLHQDWLNGKEYKCKVSNKALPAPIEKTISKAKGQPREPQVYTLPPSRCELTKNQVSLSCAVKGFYPSDIAVEWESNGQPENNYKTTPPVLDSDGSFFLVSKLTVDKSRWQQGNVFSCSVMHEALHNHYTQKSLSLSPDYKDDDDK EPKSSDKTHTCPPCPAPELLGGPSVFLFPPKPKDTLMISRTPEVTCVVVDVSHEDPEVKFNWYVDGVEVHNAKTKPREEQYNSTYRVVSVLTVLHQDWLNGKEYKCKVSNKALPAPIEKTISKAKGQPREPQVCTLPPSRDELTKNQVSLWCLVKGFYPSDIAVEWESNGQPENNYKTTPPVLDSDGSFFLYSKLTVDKSRWQQGNVFSCSVMHEALHNRYTQKSLSLSP light: DIVMTQSPLSLPVTPGEPASISCRSSQSLVHSNRNTYLHWYQQKPGQAPRLLIYKVSNRFSGVPDRFSGSGSGTDFTLKISRVEAEDVGVYYCGQGTQVPYTFGQGTKLEIKRTVAAPSVFIFPPSDEQLKSGTASVVCLLNNFYPREAKVQWKVDNALQSGNSQESVTEQDSKDSTYSLSSTLTLSKADYEKHKVYACEVTHQGLSSPVTKSFNRGEC
